acyl = not defined here
B1: peptide GSGKS (peptide)
peptide: acyl-GSGKS-NH2
modifications: reading uncertain; also: acylated at the amino terminus (acyl group not given here)
B2: peptide SGRS (peptide)
peptide: acyl-SGRS-NH2
modifications: reading uncertain; also: acylated at the amino terminus (acyl group not given here)
B3: peptide (V) of Table 1, YGRS (peptide)
peptide: acyl-YGRS-NH2
modifications: reading uncertain; also: acylated at the amino terminus (acyl group not given here)
B4: peptide SGKS (peptide)
peptide: acyl-SGKS-NH2
modifications: reading uncertain; also: acylated at the amino terminus (acyl group not given here)
B5: peptide (VII) of Table 1, FRGRK (peptide)
peptide: acyl-FRGRK-NH2
modifications: reading uncertain; also: acylated at the amino terminus (acyl group not given here)
B6: peptide (VI) of Table 1, RGRK (peptide)
peptide: acyl-RGRK-NH2
modifications: reading uncertain; also: acylated at the amino terminus (acyl group not given here)
B7: peptide SGRSA (peptide)
peptide: acyl-SGRSA-NH2
modifications: reading uncertain; also: acylated at the amino terminus (acyl group not given here)

Legend:
[1] = biological target: tissue plasminogen activator (t-PA) (human, UniProt P00750 36-562, limits assumed); assay: cell-based or functional assay
Chain of tissue plasminogen activator (t-PA) (P00750 36-562 limits assumed): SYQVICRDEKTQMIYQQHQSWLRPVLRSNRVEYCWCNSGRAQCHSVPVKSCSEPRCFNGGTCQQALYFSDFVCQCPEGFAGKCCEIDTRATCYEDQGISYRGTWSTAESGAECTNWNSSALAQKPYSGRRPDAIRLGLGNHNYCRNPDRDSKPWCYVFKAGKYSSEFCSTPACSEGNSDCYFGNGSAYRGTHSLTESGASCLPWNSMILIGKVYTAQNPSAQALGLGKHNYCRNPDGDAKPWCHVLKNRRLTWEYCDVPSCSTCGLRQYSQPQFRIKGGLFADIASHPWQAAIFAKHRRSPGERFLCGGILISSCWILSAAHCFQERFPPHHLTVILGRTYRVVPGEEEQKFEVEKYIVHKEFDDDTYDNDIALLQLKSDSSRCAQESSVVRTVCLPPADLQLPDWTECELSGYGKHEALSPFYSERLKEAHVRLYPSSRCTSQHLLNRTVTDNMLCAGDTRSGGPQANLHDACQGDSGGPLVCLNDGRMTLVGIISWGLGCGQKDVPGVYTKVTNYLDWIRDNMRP

[2] = biological target: urokinase-type plasminogen activator (u-PA) (human, UniProt P00749 21-431, limits assumed); assay: cell-based or functional assay

Binder	t-PA:u-PA Selectivity [1]	u-PA:t-PA Selectivity [2]
B1	0.008	121
LGGSGRNAQVRLE [peptide LGGSGRNAQVRLE]	0.011	89
B2	0.3	3.3
B3	17	
B4	0.04	23
B5	78	
LGGSGRKASLSLE [peptide LGGSGRKASLSLE]	0.032	31
LGGSGRSATRDLE [peptide LGGSGRSATRDLE]	0.06	16
KKSPGRVVGGSVAH [peptide (I), native cleavage sequence from plasminogen]	0.33	3
LGGSGQRGRKALE [peptide (II) of Table 1, LGGSGQRGRKALE]	47	
LGGSGHYGRSGLE [peptide (IV) of Table 1, LGGSGHYGRSGLE]	21	
LGGSGERARGALE [peptide (III) of Table 1, LGGSGERARGALE]	13	
B6	57	
LGGRGRSANAILE [peptide LGGRGRSANAILE]	5.2	0.019
LGGYGRSANAILE [peptide LGGYGRSANAILE]	5.7	0.018
LGGSGRSANAILE [peptide LGGSGRSANAILE]	0.016	63
LGQRGRSANAILE [peptide LGQRGRSANAILE]	19	0.005
B7	0.05	20

From patent US20030186329A1 (Scripps Research, published 2003)
